assay: yeast display, Sf9 membrane polyspecificity reagent, FACS + sequencing; frameworks hold sequencing errors
In short: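 Genes from sorted yeast were amplified by colony PCR, read by MiSeq 2 × 250 sequencing and filtered on CDR length. These cells carried a synthetic nanobody library in Saccharomyces cerevisiae BJ5465 and were sorted by FACS into low and high (top ~1%) gates on anti-HA and streptavidin fluorescence. Polyreactivity is labelled according to the gate of origin.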

Row | Sequence | polyreactivity (PSR sort gate)
1 | QVQVVESGGGLVQAGGSLRLSCAASGSIFVYYTMGWYRQAPGKERELVAAITRGGRTNFADSVKGRFTISRDNAQNSVYLLMNSLNPEDTAVYYCAKGYYWLSTYGDSRYGYWGQGTQVTVSS | high polyreactivity
2 | QVQLVESGGGLVQAGGSLRLTCAASGSIFRGYDMRWYRQAPGKERELVAASTWSGSTYYADSVKGRFTISRDNGKNTVYLQMNSLKPEDTAVYYCAAGSRYAYAYTMDYWGQGTQVTVSS | high polyreactivity
3 | QVQLVESGGGLVQAGGSLRLSCAASGSTFLYYAMGWYRQAPGKESELVARITTRVGRTYYADSVKGRFTISRDNAKNTVYLQMNSLKPEDTAVYYCNAPYLKSRFRAYYHWGQGTQVTVAS | high polyreactivity
4 | QVQLVESGGGLVQAGGSLRLSCAASGSIFEYNDMGWYRQAPGKERELVAAISWNGGSTYYADSVKGRFTISRDNAKNTVYLPMNSLKPEETAVYYCNTRYSPGYQGTEVDYWGQGTQVTVSS | low polyreactivity
5 | QVQLVESGGGLVQAGGSLRLSCAASGFIFAYYAMGWYRQAPGKERELVAAISSRGGTYYADSVKGRFTISRDNAKNTVYLQMNSLKPEDTAVYYCAAASYTWVSRGYEYWGQGTQVTVSS | high polyreactivity
6 | QVQLVESGGGLVQAGGSLRLSCAASGLILYYYTIGWYRQAPGKERELVAAINSGGNTYYADSVKGRFTISRDNAKNTVYLQMNSLKPEDTAVYYCNAYRVRYKRSYDYWGQGTQVTVSS | high polyreactivity
7 | QVQLVESGGGLVQAGGSLRLSCAASGSTFDVYAMGWYRQATGKERELVAVINTSGTRTYYADSVKGRFTISRDNSKNTVYLQMISLKPEDTAVYYCNAGGHLEMNYWGEGTQVTVSS | low polyreactivity
8 | QVQLVESGGGLVHAGGSLRLSCDASGLIFYGYAMGWYRQAPGKERQLVADITYSGGRTYYADSVKGRFSISRDNAKNTVYFQMHSLKAEDTAVYYCNARHRSHSNSQPGWKYVYWGQGTQVTVSS | low polyreactivity
9 | QVQLVESGGGLVQAGGSLRLSCAASGSTFSWYAMGWYRQAPGKERELVASISFSGGDTSYADSVKGRFTISRDNAKNTVYLQMHSLKPEDSAVYYCGKEYKYETDTKFDYWGQGTQVTVSS | low polyreactivity
10 | QVQLVESGGGLVQAGGSLRLSCAASGRTFYRYGMGWYRQAPGKEREFVAAITRSGDSTYADSVKGRFTISRDNAKNTVYLQMNSLKPEDTAVYYCAKVFLRQYAYRYYYWGQGTQVTVSS | high polyreactivity
11 | QDQLVESGGGLVQAGGSLRLICAASGRIFVYYAMGWYRQAPGKERVLVATISSGGSTYYADSVKGRFTISRDNAKNTVYLQMNSLKPEDTAVYYCAADTDNRDLAYYYKGDYWGQGTQVTVSS | low polyreactivity
12 | QVQLVESGGGLVQAGGSLRLSCAASGFTFGYNAMGWYRQAPGKEREFVAAITKSGDSTYYADSVKGRFTISRDNAKNSVYLQMNSLKPEDTAVYYCAAQYRQRRHDYWGQGTQVTVSS | high polyreactivity
13 | QVQLVESGGGLVQQGGILRLSCASSGSNFILNEMGWSRQAPRKDRELVATISSSDTSTYYADSVKGRFTISRDNAKNTVYVQMNSLKPEDTAVYYCNADYYTTSYLQRVYHYGVEYDYWGQGTQVTVSS | low polyreactivity
14 | QVQLVETGGGLVQAGGSLRLSCAASGRTFSGYAMGWSRQAPGKERELVASITWSGGSTYYADSVKGRFTISRDNAKNTVYLQMNSLKPDDTAVYYCARDSPRGRVGFNYWGQATQVTVSS | low polyreactivity
15 | QVQLVESGGGLVQAGGSLRLSCAASGSTFGHNVMGWYRQSPGKERELVAAISTSGGRTYYADSVKGRFTISRDNAKNTVYLQMNSLKPEDTAVYYCAARVYSTSVVAYYYWGQGTQVTVSS | high polyreactivity
16 | QVQLVESGGGLVQAGGSLRLSCAASGYTFAWYAMGWYRQAPGKERELVAAITTSGGGTYYADSVKGRFTISRDNAKNTVYLQMNSLKPEDTAVYYCAADTWRDGDDYWGQGTQVTVSS | low polyreactivity
17 | QVQLVESGGGLVQAGGSLRLSCAASGLTFGWYTMGWYRQAPGKERELVAAISWSGGSTYYADSVKGRFTISRDNAKNTVYLQMNSLKPEDTAVYYCAADQSTVLDVGSWGQGTQVTVSS | low polyreactivity
18 | QVQLVESGGGLVQAGGSLRLSCAASGSTFSKNTMGWYRKAPGKERELVAAITSGGSTYYADSVKGRFTISRDNAKNTVYLQMNSLKPEDTAVYYCAAGYELYYYIYKMDYWGQGTQVTVSS | high polyreactivity
19 | QVQLVESGGALVQAGGSLRLSCAASGSISTYAIGWYRQAPGKERELVAAMNKRGGSTYYADSVKGRFTISRDNAKNTVDLQMNSLKPADTAVDYCAAGLAHSAAFDYWGQGTQVTVSS | low polyreactivity
20 | QVQLVESGGGLVQAGGSLRLSCAASGYTFAGYAMGWYRQAPGKERELVAAISQSGGRTYYADSVKGRFTISRDNAKNTVYLQMNSLKPEDTAVYYCNARAYYAGTYYVSRYYYWGQGTQVTVSS | high polyreactivity
21 | QVQLVESAGGLVQAGGSLRLSCAASGSIFKDYAMGWYRQAPGKERELVAAITSGTSTTYADSVKGRFTISRDNAKYTVYLPMNSLKPDDTAVYYCAADYYLRKTRFESWGQGTQVTVSP | low polyreactivity

Row | Sequence | polyreactivity (PSR sort gate)
22 | QVQLVESGGGLVQAGGSLRLSCAASGSIFADYVMGWYRQAPGKDRELVAAITRRGRTYYADSVKGRFTISRDNAKNTVYLQMNSLKPEDTAVYYCAKVGSGNIDSWGQGTQVTVSS | low polyreactivity
23 | QVQLVESGGGLVQAGGSLRLSCAASGSIFYTYAMGGYRPAPGKERELVAAISSGGSTTYADSVKGRFTISRDNAKNTVYLQMTSLKPEDTAVYYCNTSYRKKKRYYYWGQGTQVTVSS | high polyreactivity
24 | QVQLVESGGGLVQAGGSLRLSCAASGRTFIGYAMGWYRQAPGKERELVAAISPGGSTKYADSVKGRFTISRDNAKNTVYLQMNSLKPEDTAVYYCAASYSGRQDRYPHYDYWGQGTQVTVSS | low polyreactivity
25 | QVQLVESGGGLVQAGGSLRLSCAASGLTFSRNTMGWYRQAPGKERELVDTIDRGGRTNYADSVKGRFTISRDNAKNTVYLQMNSLKPEDTAVYYCATDASFYDPDLYPYGYDYWGQGTQVTVSS | high polyreactivity
26 | QVQLVESGGGLVQAGGSLRLSCAASGLIFADYVMGWYRQAPGKERELVVTINQGGGSTYYADSVKGRFTISRDNAKNTVYLQMNSLKPEDTAVYYCAATWALLYAIFESYDYWGQGTQVTVSS | low polyreactivity
27 | QDQLVDSGGGLVQAGGSLRLSCAASGSTFGYYVMGWYRQAPGKERELVAAISDSDGSTYYADSVKGRFTISRDNAKNTVYLQMYSLKPEDTAVYYCATGPHQPPYSYLDYDYWGQGTQVTVSS | low polyreactivity
28 | QVQLVESGGGLVQAGGSLRLSCAASGSIFSYYAMGWYRQAPGKERELVADITANDGSTYYADSVKGRFTISRDNAKNTVYLQMNSLKPEDTAVYYCAAEYYYPIWGPYDYWGQGTQVTVSS | high polyreactivity
29 | QVQLVESGGGLVQAGGSLRLNCAASGSIFDDYAMGWYRQAPGKERELVAAINIRTGSTYYADSVKGRFTISRDNAKNTVYLQMHSLKPEDTEVYYCNRVVRGFVRHLDYWGQGTQVTVSS | low polyreactivity
30 | QVQVVESGGGLVQAGGSLRLSCAASGINFLTNAMGWYRQAPGKERELVAAISQSGGSTYYADSVKGRFTISRDHAKNTVYLQMNSLKPEDTAVYYCAAPQRYPRFYYWGQGTQVTVSS | high polyreactivity
31 | QVQLVESGGGLVQAGGSLRLSCAASGRTFNFYSMGCYRQAPRKERELVAAISHGDSTYYADSVKGRFTISRDNAKNTVYLQMNSLNPEDTAVYYCAASQKYYLRKYEYWGQGTQVTVSS | low polyreactivity
32 | QVQLVESGGGLVQAGGSLRLSCAASGSTIDYYAMGWYRQARGKERELVAAISWSGGSTYYADSVKGRFTISRDNAKNTVYLQMNSLKPEDTAVYYCAADSAFYTGSYYGWSDYDYWGQGTQVTVSS | low polyreactivity
33 | QVQLVESGGGLVQAGGSLRLSCAASGSIFQGYAMGWYRQAPGKERELVASISRGGSTNYADSVKGRFTISRDNAKNTVYLQMNSLKPEDTAVYYCAARAYWYGRYGYWGQGTQVTVSS | high polyreactivity
34 | QVQLVESGGGLVQAGGSLRLRCAASGSTSPFNAMGWYRQAPGKERELVASITSSGSTNYADSVKGRFTISRDNAKNTVYLQINSLKPEDTAVYYCASEGVVSETFYAYWGQGTQVTVSS | low polyreactivity
35 | QVQLVESGGGLVQAGGSLRLSCAASGFIFDSYAMGWYRPAPGKERELVATITKGGGRTYYADSVKGRFTISRDNAKNTVYLQMNSLKPEDTAVYYCNARGFSRRKGLDYWGQGTQVTVSS | low polyreactivity
36 | QVQLVESGGGLVQAGGSLRLSCAASGIIFYRYAMGWYRQAPGKEWELVAAITWRGGSTYYADSVKGRFTISRDNAKNTVYLQMTSLKPEDTAVYYCAARRRATYEFDYWGQGTQVTVSS | high polyreactivity
37 | QFQLVESGGGLVQAGGSLRLSCAATGRIFYKYAMGWYRQAPRKETELVAAISSSGGRTYYADSVKGRFTISRDNAKNTVYLQMNSLKPEDSAVYYCGARIHYPSLPYDYWGQGTQVTVSS | low polyreactivity
38 | QVQLVESGGGLVQAGGRLRLSCAASGSTLSYYAMGWYIQAPGKERELVAAISFSGGSTYYADSVKGRFTISRDNAKNTVYLQMNSLKPEDTAVYYCNAPPLYRDEYWGQGTQVTVSS | high polyreactivity
39 | QVHLVESWGGLVQAGGSLRLSCAASGSTFSDYAMGWYRQAPGKERELVAGITGGGGTYYADSVKGRFTISRDNAKNTVSLHMNSLTPEDTARYYCAAGRRHGFGYWGQGTQVTVSS | low polyreactivity
40 | QVQLVESLGGLVQAGGSLRLSCAASGITFGWYAMGWYRQAPGQERELVAAISPAGSTYYADSVKGRFTISRDNAKNTVYLQMNSLKPEDTAVYYWRYSAFRFSAMGYWGHGTQVTVSS | high polyreactivity
41 | QVQLVESGGGLVQAGGSLRLSCAASGFIFTQYAMGWYRPAPGKEWELVAAITRSGGRTYYADSVKGRFTISRDNAKNTVYIQMNSLKPEDTAVYYCAVDTVTRTVLVYGDRNDSWGQGTQVTVSS | high polyreactivity

Source: the nanobody polyreactivity screen of Harvey et al. (2022)
